Test results as given in US20240191241, “APTAMERS FOR USE IN THE […] OF CORONAVIRIDAE INFECTIONS” (Berlin Cures GmbH, published 2024).

T1: SARS-CoV-2 RNA-dependent RNA polymerase peptide LYRNRDV (SARS-CoV-2)
T1 chain: LYRNRDV

T2: SARS-CoV-2 spike receptor-binding domain control peptide NRKRISN (SARS-CoV-2)
T2 chain: NRKRISN

T3: SARS-CoV-2 spike receptor-binding domain peptide No. 4 (YRLFRK) (SARS-CoV-2)
T3 chain: YRLFRK

T4: SARS-CoV-2 RNA-dependent RNA polymerase peptide HRFYRLAN (SARS-CoV-2)
T4 chain: HRFYRLAN


Experiments:
Thrombin = Thrombin (Homo sapiens, UniProt P00734;P00734 P00734:328-363,P00734:364-622); assay: ELONA
[1] = target: T1, SARS-CoV-2 RNA-dependent RNA polymerase …; assay: NMR; quadruplex fold induced by peptide; 90/10 H2O/D2O, 298 K; settings: tags: isolated peptide; G4
[2] = target: T2, SARS-CoV-2 spike receptor-binding …; assay: NMR: nearly complete absence of quadruplex formation; also used as control in ITC (50 mM sodium phosphate, 150 mM NaCl, pH 7.16, 25 C); settings: tags: isolated peptide; G4
[3] = target: T3, SARS-CoV-2 spike receptor-binding …; assay: NMR; quadruplex imino signals induced by peptide; 1 mM each, 90/10 H2O/D2O, 298 K, no additives; settings: tags: isolated peptide; G4
[4] = target: T4, SARS-CoV-2 RNA-dependent RNA polymerase …; assay: ITC; 1:1 stoichiometry; 50 mM sodium phosphate, 150 mM NaCl, pH 7.06, 25 C; quadruplex induction also by NMR; Kd not given; settings: tags: isolated peptide; G4

Row | Binder | binding result (Thrombin) | binding result [1] | binding result [2] | binding result [3] | binding result [4]
1 | GGTTGGTGTGGTTGG (ssDNA) [BC007 5'-biotinylated] | binds | – | – | – | –
2 | GGTTGGTGTGGTTGG (ssDNA) [BC007] | – | binds | no binding | binds | binds
